Reference: patent US20100119450A1 (published 2010)

B1: recombinant LRP-1 fragment encompassing cluster II (receptor, UniProt Q07954 805-1184, looked up)
chain: NKCRVNNGGCSSLCLATPGSRQCACAEDQVLDADGVTCLANPSYVPPPQCQPGEFACANSRCIQERWKCDGDNDCLDNSDEAPALCHQHTCPSDRFKCENNRCIPNRWLCDGDNDCGNSEDESNATCSARTCPPNQFSCASGRCIPISWTCDLDDDCGDRSDESASCAYPTCFPLTQFTCNNGRCININWRCDNDNDCGDNSDEAGCSHSCSSTQFKCNSGRCIPEHWTCDGDNDCGDYSDETHANCTNQATRPPGGCHTDEFQCRLDGLCIPLRWRCDGDTDCMDSSDEKSCEGVTHVCDPSVKFGCKDSARCISKAWVCDGDNDCEDNSDEENCESLACRPPSHPCANNTSVCLPPDKLCDGNDDCGDGSDEGELCDQ
notes: domain: cluster II; Produced in stably transfected baby hamster kidney cells as described in Westein et al., 2002; immobilized on CM5 chip; also called LRP-1 cluster II; LRP-1 II
B2: recombinant LRP-1 fragment encompassing cluster IV (receptor)
chain: not shown
notes: domain: cluster IV; Produced in stably transfected baby hamster kidney cells as described in Westein et al., 2002; immobilized on CM5 chip; also called LRP-1 cluster IV; LRP-1 IV

How the values were obtained:
[1] = biological target: T1, amyloid-β peptide Aβ1-40 (wild-type) (UniProt P05067 672-711); test: SPR (BIACORE X), LRP-1 cluster immobilized on CM5 chip, Aβ in solution; apparent Kd from koff/kon
T1 construct: domain: Aβ1-40; Soluble monomeric synthetic peptide; used 125I-labeled as tracer in capillary and in vivo studies; also called Aβ40; wild-type Aβ1-40
Method: (§1) Incubation conditions as described under Materials and Methods. […] Apparent affinity constants K_{d(app)} were deduced from the ratios of k_{off(app)}/kₒₙ₍ₐₚₚ₎ as described under Materials and Methods. […] K_{d(app)} (mean±SD) values were determined from 6 to 9 different concentrations of Aβ and 3 to 5 independent measurements at each concentration.
(§2) (as described in Westein et al., 2002). […] Ligand solution was replaced with buffer to initiate dissociation. The data were analyzed to calculate apparent association rate constants kₒₙ₍ₐₚₚ₎ and apparent dissociation rate constants k_{off(app)} using a single-site binding model (as described in Westein et al., 2002). Apparent affinity constants K_{d(app)} were inferred from the ratio k_{off(app)}/kₒₙ₍ₐₚₚ₎. Data are based on three to five measurements using six to nine different concentrations for each measurement. Data are presented as the mean±SEM. Analysis was performed using BIACORE X biosensor system (Uppsala, Sweden) and BIA evaluation 3.0 software (Biocore, Sweden).

[2] = biological target: T2, amyloid-β peptide Aβ1-42 (wild-type) (UniProt P05067 672-713); test: as above
T2 construct: domain: Aβ1-42; Synthetic peptide; also called Aβ42
Method: as §1, §2

| Binder | Kd [1] | Kd [2] |
| --- | --- | --- |
| B1 | 0.57 nM | 3 nM |
| B2 | 1.24 nM | 10.1 nM |
